Laboratory results as given in patent US20210137940A1 (AstraZeneca / MedImmune, published 2021).

Molecular target: Prostate-Specific Membrane Antigen (PSMA), as expressed on LNCaP cells (human, UniProt Q04609 1-750)
Experiment: cell-based or functional assay

Prostate-Specific Membrane Antigen (PSMA), as expressed on LNCaP cells, sequence (Q04609 whole entry): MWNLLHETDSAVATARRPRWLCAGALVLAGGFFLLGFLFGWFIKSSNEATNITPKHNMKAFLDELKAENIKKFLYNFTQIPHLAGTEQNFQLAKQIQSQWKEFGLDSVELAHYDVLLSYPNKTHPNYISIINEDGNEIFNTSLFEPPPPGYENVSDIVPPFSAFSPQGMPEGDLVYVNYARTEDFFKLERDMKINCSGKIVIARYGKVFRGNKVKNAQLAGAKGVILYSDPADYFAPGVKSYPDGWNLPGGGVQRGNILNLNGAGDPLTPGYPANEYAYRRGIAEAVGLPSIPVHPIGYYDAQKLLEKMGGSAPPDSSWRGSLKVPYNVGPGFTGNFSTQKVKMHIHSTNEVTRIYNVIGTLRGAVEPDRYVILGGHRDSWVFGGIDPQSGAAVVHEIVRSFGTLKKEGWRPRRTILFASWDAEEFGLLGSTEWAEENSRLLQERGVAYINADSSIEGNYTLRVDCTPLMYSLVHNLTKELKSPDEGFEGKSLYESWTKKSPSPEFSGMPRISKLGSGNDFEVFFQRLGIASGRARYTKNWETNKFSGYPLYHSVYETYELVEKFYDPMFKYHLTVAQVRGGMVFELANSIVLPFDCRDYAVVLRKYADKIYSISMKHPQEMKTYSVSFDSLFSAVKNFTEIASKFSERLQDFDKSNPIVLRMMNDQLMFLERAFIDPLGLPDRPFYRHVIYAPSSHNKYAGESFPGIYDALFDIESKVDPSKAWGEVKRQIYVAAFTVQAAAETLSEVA

Binder	EC50 (µg/mL), in vitro cytotoxicity on LNCaP cells (Alamar Blue cell survival, 4-day incubation)
HAKA-A (ADC of J415RHA+J415RKA anti-PSMA antibody conjugated to drug linker A) (antibody, V domains shown, PBD drug linker A conjugated to reduced cysteine thiols (positions not stated); measured DAR 1.17 per antibody) VH: EVQLVESGGGLVQPGGSLKLSCAASGFTFSNYWMNWVRQASGKGLEWVGEIRSQSNNFATHYAESVKGRFTISRDDSKNTAYLQMNSLKTEDTAVYYCTRRWNNFWGQGTTVTVSS VL: DIQMTQSPSSVSASVGDRVTITCKASENVGTYVSWYQQKPGTAPKLLIYGASNRFTGVPSRFSGSGSATDFTLTINNLQPEDFATYYCGQSYTFPYTFGQGTKVEIK	0.00186 µg/mL
HAKB-A (ADC of J415RHA+J415RKB anti-PSMA antibody conjugated to drug linker A) (antibody, V domains shown, PBD drug linker A conjugated to reduced cysteine thiols (positions not stated); measured DAR 1.86 per antibody) VH: EVQLVESGGGLVQPGGSLKLSCAASGFTFSNYWMNWVRQASGKGLEWVGEIRSQSNNFATHYAESVKGRFTISRDDSKNTAYLQMNSLKTEDTAVYYCTRRWNNFWGQGTTVTVSS VL: DIQMTQSPSSVSASVGDRVTITCKASENVGTYVSWYQQKPGTAPKLLIYGASNRFTGVPSRFSGSGSATDFTLTINNLQPEDFATYYCGQSYTFPYTFGQGTKVEIK	0.00163 µg/mL
